The values that follow come from US20120100140A1 (Biogen, published 2012).

Test [1] has as its target T1, CD64 (FcγRI) (UniProt P12314 16-288, limits assumed).
T1 construct: Soluble Fc receptor used in solution; source and construct not described
Put plainly: solution affinity SPR: antibody titrated into CD64, inhibition of CD64 binding to immobilized IgG1 MAb; average of two titrations.

For test [2], the target named is T1, CD64 (FcγRI). Put plainly: solution affinity SPR: inhibition of CD64 binding to immobilized IgG1 MAb.
The target of a further test is T2, CD16 (FcγRIIIa V158) (UniProt P08637 17-208, limits assumed).
T2 construct: V158 allotype as printed; source and construct not described; also called Fc gamma III receptor
T2 sequence (P08637 17-208 F176V limits assumed): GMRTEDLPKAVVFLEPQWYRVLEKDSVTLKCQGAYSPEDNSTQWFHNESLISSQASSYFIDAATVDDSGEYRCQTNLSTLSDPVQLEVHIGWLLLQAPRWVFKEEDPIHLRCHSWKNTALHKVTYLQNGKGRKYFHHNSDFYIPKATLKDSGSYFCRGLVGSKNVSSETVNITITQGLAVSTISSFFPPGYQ
Description: solution affinity SPR: antibody titrated into CD16, inhibition of CD16 binding to immobilized IgG1 MAb; average of two titrations.

T1 sequence (P12314 16-288 limits assumed): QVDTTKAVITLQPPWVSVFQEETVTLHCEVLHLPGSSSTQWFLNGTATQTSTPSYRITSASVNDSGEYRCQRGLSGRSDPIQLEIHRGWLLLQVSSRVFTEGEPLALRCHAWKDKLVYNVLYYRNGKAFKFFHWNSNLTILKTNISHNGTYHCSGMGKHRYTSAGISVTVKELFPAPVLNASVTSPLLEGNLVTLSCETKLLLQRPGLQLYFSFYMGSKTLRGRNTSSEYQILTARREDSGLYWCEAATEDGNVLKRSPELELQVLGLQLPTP

B1: pEAG2300 (hu5c8, IgG4 chimeric hinge + IgG1 CH3, glycosylated) (antibody)
chain 1: QVQLVQSGAEVVKPGASVKLSCKASGYIFTSYYMYWVKQAPGQGLEWIGEINPSNGDTNFNEKFKSKATLTVDKSASTAYMELSSLRSEDTAVYYCTRSDGRNDMDSWGQGTLVTVSSASTKGPSVFPLAPCSRSTSESTAALGCLVKDYFPEPVTVSWNSGALTSGVHTFPAVLQSSGLYSLSSVVTVPSSSLGTKTYTCNVDHKPSNTKVDKRVESKYGPPCPPCPAPPVAGPSVFLFPPKPKDTLMISRTPEVTCVVVDVSQEDPEVQFNWYVDGVEVHNAKTKPREEQFNSTYRVVSVLTVLHQDWLNGKEYKCKVSNKGLPSSIEKTISKAKGQPREPQVYTLPPSRDELTKNQVSLTCLVKGFYPSDIAVEWESNGQPENNYKTTPPVLDSDGSFFLYSKLTVDKSRWQQGNVFSCSVMHEALHNHYTQKSLSLSPG
chain 2: DIVLTQSPATLSVSPGERATISCRASQRVSSSTYSYMHWYQQKPGQPPKLLIKYASNLESGVPARFSGSGSGTDFTLTISSVEPEDFATYYCQHSWEIPPTFGGGTKLEIKRTVAAPSVFIFPPSDEQLKSGTASVVCLLNNFYPREAKVQWKVDNALQSGNSQESVTEQDSKDSTYSLSSTLTLSKADYEKHKVYACEVTHQGLSSPVTKSFNRGEC
Consider B1, for which the IC50 (in general, the concentration needed to halve the response being measured) in the test with CD64 (FcγRI) [1] stood at 3020 µM.

B2: EC300 (hu5c8 IgG4.P S228P, T307P, glycosylated) (antibody)
chain 1: not shown
chain 2: B1 chain 2
Regarding B2, the IC50 with CD64 (FcγRI) [2] is about 8 µM; with CD64 (FcγRI) [1], 11.2 µM; in the test with CD16 (FcγRIIIa V158) it was 564 µM.

B3: IgG4.P T299A (hu5c8 aglycosylated IgG4.P S228P, T299A) (antibody)
chain 1: not shown
chain 2: B1 chain 2
In the case of B3, the IC50 with CD64 (FcγRI) [1] came out at 739 µM.
